Where a name gives a salt, the structure may show the parent alone. *1 amine or outer side, *2 acyl side, *3 side chain or, on linkers, in order; H or OH if unused. Where a SMILES comes first, the peptide text is derived from it. Bridges are numbered along the chain shown (N, C = ends). Where no end group is shown, it is not given here. [ ]: non-standard residue; d: D form. The star is where a group is joined. X2 = CCN(CCN([C@@H](Cc1ccc(O)cc1)C(=O)[*:2])[*:1])c1ccc(N=Nc2ccc([N+](=O)[O-])cc2)cc1; X1 = NC(=O)CCCC(=O)*
Experiments:
Assay type in all cases: biochemical, bovine
Trypsin [1] = target: T1, Trypsin (Bos taurus, UniProt P00760); test: Trypsin assay (L-BAPNA hydrolysis, absorbance at 410 nm); conditions: 5% DMSO
T1 construct: Trypsin (from bovine pancrease, Type I, ethanol precipitate); purchased Sigma Type I (catalogue number not given); host or cells: bovine pancreas
T1 sequence (P00760 24-246): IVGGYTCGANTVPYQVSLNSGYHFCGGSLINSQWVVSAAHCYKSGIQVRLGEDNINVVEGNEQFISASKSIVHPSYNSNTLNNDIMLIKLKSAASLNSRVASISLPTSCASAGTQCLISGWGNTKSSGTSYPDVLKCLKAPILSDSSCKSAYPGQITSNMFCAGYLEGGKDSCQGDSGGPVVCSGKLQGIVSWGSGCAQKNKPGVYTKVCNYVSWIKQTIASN
Method: (§1) Reagents and solvents were obtained from commercial suppliers and used as received. Trypsin (from bovine pancrease, Type I, ethanol precipitate) and N-α-benzoyl-L-arginine-p-nitroanilide, hydrochloride were obtained from Sigma®. All moisture- or air-sensitive reactions were conducted under nitrogen in dried solvents. Unless otherwise indicated, chromatography was performed on silica gel with the indicated solvent as eluant. […]
All assays were performed at 37° C. on a Kontron Uvikon 860 UV-Vis spectrophotmeter. The forward reaction rate was measured by monitoring the absorbance change at 410 nm of the para-nitroanilide produced ( e=8800 M^-1 cm^-1 at 410 nm) at 30 sec intervals for 15 min. The concentrations of inhibitor solutions were determined spectrophotometrically from Disperse Red 1's extinction coefficient of 15,562 M^-1 cm^-1 at 490 nm. […] Inhibition constants (Ki 's) were determined from the slope of the V0 /v vs. [inhibitor] plots where the slope=1/Ki (1 +[L-BAPNA]/Km) and Km =2.0 +/-0.3 mM, V0 =rate in the absence of inhibitor and v=rate in the presence of inhibitor. […]

Trypsin [2] = target: T1, Trypsin; test: Dye retention on resin after trypsin treatment and cleavage of ester X; conditions: trypsin in 30:30:40 DMF/ethanol/pH 6.5 Tris buffer, then 1:1 methanol/1M sodium hydroxide, filtered and washed
Text: The compound of formula (3) is soluble; the compounds of formula (4) and (5) are not, as a consequence of their attachment to a resin. Therefore, whether or not cyclization has taken place, a solid insoluble product will remain, which can be filtered off and purified by washing. However, if cyclization has taken place and a product of formula (5) has been formed, the dye will still be attached to the resin, which consequently is visibly colored, or is visible under UV or by fluorescence, depending upon the dye used. If cyclization has not taken place and products of formula (3) and (4) have been formed, the dye will be seen in the filtrate and the insoluble resin material will be colorless.
The specific analogs that afford positive results in this screen may be then identified by conventional analysis of the material that is isolated from the resin beads by cleaving the bond linking the material to the resin beads. […]

Trypsin [3] = target: T1, Trypsin; test: Trypsin-catalyzed cyclization of acyclic compound, products determined; conditions: 30:30:40 DMF/ethanol/pH 6.5 Tris buffer
Method: The structure was determined conventionally.
The compound of Formula III SEQ ID NO: 1 where L is a resin linker was treated in the same manner, and the resin component removed. […] Therefore the material on the resin is accessible to the enzyme. A control experiment without the enzyme gave only starting material.
as §1

**Q.** NC(N)=NCCCC(NC(=O)c1ccccc1)C(=O)Nc1ccc([N+](=O)[O-])cc1 [L-BAPNA, N-α-benzoyl-L-arginine-p-nitroanilide, hydrochloride, reference compound] was tested. Which Km (Trypsin [1]; 100 mM TRIS/10 mM CaCl2 (pH=8.0), Lineweaver-Burke and non-linear regression of initial rates) did it give?
**A.** The Km was 2000 ± 300 µM.

**Q.** CCN(CCN1C(=O)[C@H](CC(C)C)NC(=O)[C@H](CO)NC(=O)[C@H](CCCNC(=N)N)NC(=O)[C@@H](NC(=O)CCCC(N)=O)[C@@H](C)OC(=O)[C@H](C(C)C)NC(=O)[C@@H]1Cc1ccc(O)cc1)c1ccc(N=Nc2ccc([N+](=O)[O-])cc2)cc1 [macrocyclic analog] (X1-TRSL[X2]V; ester 1-C) was tested. Which Ki (Trypsin [1]; 37° C., 100 mM TRIS/10 mM CaCl2 pH=8.0, substrate L-BAPNA, average value of 3 separate determinations, read-out: inhibition constant Ki) did it give?
**A.** Its Ki is 230 nM.

**Q.** For “O-{N-[L-Serinyl-L-leucyl]-N-[(4-nitrophenylazo)-2-aminophenylethyl-N-ethyl]-L-tyrosinyl-L-valinyl}-N-(glutaryl-photolinker-Tentagel-amide)-L-threonyl-L-arginine, Methyl Ester (SLYVTR-OMe; also: Tyr3 N-substituted with (4-nitrophenylazo)-2-aminophenylethyl-N-ethyl group, Val4-Thr5 ester bond via Thr side-chain OH, backbone changed)”, which “retention of dye colour on resin” value (Trypsin [2]) is on record?
**A.** The value was “The color was retained on the resin”.

**Q.** What about the cyclization by trypsin (Trypsin [3]) of the same molecule?
**A.** The cyclization by trypsin was “The same products A and B were obtained”.

**Q.** Which cyclization by trypsin (Trypsin [3]) does the source give for “O-{N-[L-serinyl-L-leucyl]-N-[(4-nitrophenylazo)-2-aminophenylethyl-N-ethyl]-L-tyrosinyl-L-valinyl}-N-(glutaryl carboxamide)-L-threonyl-L-arginine, Methyl Ester (SLYVTR-OMe; also: depsipeptide: Val ester-linked to Thr side-chain O, Tyr N-substituted with (4-nitrophenylazo)-2-aminophenylethyl-N-ethyl azo dye, Thr N-acylated with glutaryl carboxamide) [Ser--Leu--N(dye)--Tyr--Val--O--Thr(NH--C(O)--(CH2)3 CONH--L)--Arg--OR, R methyl, L hydrogen]” here?
**A.** Its cyclization by trypsin is “readily cyclized”.
